Patent US20240383996A1 (SHANGHAI HENLIUS BIOTECH, published 2024)
Where a chain is given by its changes, count along the chain named.

Experiments:
[1] = molecular target: T1, Human OX40 expressed on transfected Jurkat or CHO cells (human, UniProt P43489 29-277); assay: flow cytometry on human OX40-transfected Jurkat cells, Alexa Fluor488 anti-human IgG Fc, Geo MFI
T1 construct: also called human OX40/Jurkat; human OX40/CHO
T1 sequence: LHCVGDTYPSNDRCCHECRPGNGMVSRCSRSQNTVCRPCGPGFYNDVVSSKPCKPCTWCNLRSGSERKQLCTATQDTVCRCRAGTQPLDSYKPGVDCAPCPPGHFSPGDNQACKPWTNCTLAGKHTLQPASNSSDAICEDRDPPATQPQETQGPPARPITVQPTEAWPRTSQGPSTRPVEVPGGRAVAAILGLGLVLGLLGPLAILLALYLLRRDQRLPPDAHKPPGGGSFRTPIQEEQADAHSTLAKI
Method: FIGS. 2A-2C depict whole cell binding of humanized anti-OX40 antibodies to human or cynomolgus OX40 assessed by flow cytometry. Human OX40-expressing Jurkat cells (FIG. 2A), human OX40-expressing CHO cells (FIG. 2B) and cynomolgus OX40-expressing CHO cells (FIG. 2C) were incubated with indicated anti-OX40 bivalent antibodies, and then stained with Alexa Fluor488 conjugated anti-human IgG Fc antibody. The fluorescence intensity was measured by flow cytometry.
(§1) Bivalent antibodies of these 15 clones were made by fusing VHH to human IgG1 Fc, expressed in ExpiCHO cells, and purified by Protein A affinity column. Binding affinity of the VHH-Fc bivalent antibodies to human or cynomolgus OX40 was evaluated by flow cytometry using Jurkat cells transfected with human OX40 (human OX40/Jurkat) (FIG. 2A), CHO cells transfected with human OX40 (human OX40/CHO) (FIG. 2B), and CHO cells transfected with cynomolgus OX40 (cyno OX40/CHO) (FIG. 2C). These antibodies with indicated concentrations were incubated with the cells in FACS buffer (3% FBS in PBS) on ice for 30 min, and the free antibodies were washed out with FACS buffer. Alexa fluor488 conjugated anti-human IgG Fc antibody (1:500) (Alexa Fluor488 AffiniPure goat anti-human IgG, Fcg fragment specific, Jackson labs) was further incubated with the cells on ice for 30 min. Cells were washed to remove free antibodies prior to FACS analysis using CytoFlex (Beckman Coulter). Binding affinity was calculated using GraphPad Prism three parameter logistic equation.

[2] = molecular target: T2, Recombinant human OX40 extracellular domain fused to human IgG1 Fc (human, UniProt P43489 29-214); assay: Octet, human OX40 ECD-Fc immobilized on a biosensor chip
T2 construct: Produced in-house; also called OX40 ECD-Fc; human OX40 ECD-Fc; not shown: human IgG1 Fc
T2 sequence: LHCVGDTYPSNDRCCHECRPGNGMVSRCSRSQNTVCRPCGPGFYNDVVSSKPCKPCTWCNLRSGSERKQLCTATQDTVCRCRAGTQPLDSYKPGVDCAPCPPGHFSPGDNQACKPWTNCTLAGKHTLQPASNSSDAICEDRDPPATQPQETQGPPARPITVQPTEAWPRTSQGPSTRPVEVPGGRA
Description: The tetravalent antibodies were produced from transiently transfected ExpiCHO cells, and purified by Protein A affinity column.

[3] = molecular target: T1, Human OX40 expressed on transfected …; assay: flow cytometry on human OX40-expressing CHO cells, Geo MFI
Method: (§2) FIGS. 4A-4D depict whole cell binding of anti-OX40 antibodies to human and cynomolgus OX40 assessed by flow cytometry.
as §1
(§3) The binding affinity of the anti-OX40 antibodies was further evaluated by flow cytometry using human OX40/Jurkat cells and human OX40/CHO cells using protocols described above. […] The cross-reactivity of the antibodies to cynomolgus OX40 was assessed by FACS analysis using cyno OX40/CHO cells.

[4] = molecular target: T1, Human OX40 expressed on transfected …; assay: flow cytometry on human OX40-expressing Jurkat cells, Geo MFI
Method: as §2, §1, §3

[5] = molecular target: T3, Cynomolgus OX40 expressed on transfected CHO cells (cynomolgus); assay: flow cytometry on cynomolgus OX40-expressing CHO cells, Geo MFI
T3 chain: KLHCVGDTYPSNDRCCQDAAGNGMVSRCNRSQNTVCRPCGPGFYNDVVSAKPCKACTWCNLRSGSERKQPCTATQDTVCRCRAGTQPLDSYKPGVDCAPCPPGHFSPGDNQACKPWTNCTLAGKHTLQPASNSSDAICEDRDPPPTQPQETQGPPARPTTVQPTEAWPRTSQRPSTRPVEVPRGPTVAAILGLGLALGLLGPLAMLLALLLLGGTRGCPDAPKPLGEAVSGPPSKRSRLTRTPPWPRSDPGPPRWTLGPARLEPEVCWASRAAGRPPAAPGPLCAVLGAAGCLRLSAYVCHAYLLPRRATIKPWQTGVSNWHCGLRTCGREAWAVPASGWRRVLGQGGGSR
Method: as §2
as §1, with “Cells were washed to remove free antibodies prior to FACS analysis using CytoFlex (Beckman Coulter).” left out
as §3

[6] = molecular target: T1, Human OX40 expressed on transfected …; assay: flow cytometry, whole cell binding to human OX40-expressing Jurkat cells, Geo MFI
[7] = molecular target: T1, Human OX40 expressed on transfected …; assay: as above; remark: listed apart in the source
Fc-fused mouse OX40 ECD = molecular target: T4, Fc-fused mouse OX40 ECD (mouse, UniProt P47741 20-211); assay: ELISA: plate coated with Fc-fused mouse OX40 ECD, biotin-labeled c5E10, HRP-avidin, OD450
T4 construct: extracellular domain; also called recombinant mouse OX40 ECD; not shown: Fc
T4 sequence (looked up): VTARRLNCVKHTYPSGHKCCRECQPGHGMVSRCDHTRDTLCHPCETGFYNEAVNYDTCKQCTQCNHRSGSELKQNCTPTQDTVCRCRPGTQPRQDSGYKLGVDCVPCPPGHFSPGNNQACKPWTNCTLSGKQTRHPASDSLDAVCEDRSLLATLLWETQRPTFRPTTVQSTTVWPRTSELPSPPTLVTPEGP
Method: The protein was expressed in ExpiCHO cells, and purified by Protein A affinity chromatography. […] Briefly, 1 μg/ml of Fc-fused human or mouse OX40 ECD was coated in a 96-well high binding plate at 4° C. overnight.

[8] = molecular target: T5, Human CTLA4 expressed on transfected CHO or Jurkat cells (human, UniProt P16410 36-222); assay: flow cytometry, whole cell binding to human CTLA4-expressing CHO cells, Alexa Fluor488 anti-human IgG Fc, Geo MFI
T5 construct: also called human CTLA4/CHO; human CTLA4/Jurkat
T5 sequence: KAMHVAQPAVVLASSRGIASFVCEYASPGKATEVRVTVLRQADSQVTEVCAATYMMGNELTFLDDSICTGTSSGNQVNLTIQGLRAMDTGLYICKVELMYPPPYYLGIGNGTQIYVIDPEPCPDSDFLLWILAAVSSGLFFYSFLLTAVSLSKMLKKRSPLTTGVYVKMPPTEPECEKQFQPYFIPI

[9] = molecular target: T1, Human OX40 expressed on transfected …; assay: flow cytometry, whole cell binding to human OX40-expressing Jurkat cells, Alexa Fluor488 anti-human IgG Fc, Geo MFI
[10] = molecular target: T2, Recombinant human OX40 extracellular …; assay: ELISA of VHH supernatants on plates pre-coated with human OX40 ECD-Fc or human OX40 ECD-His

B1: 4H2 VHH-Fc bivalent antibody (antibody, human IgG1, V domains shown)
VH: EVQLVESGGGLVQPGGSLRLSCAASGPLGYPSIAWFRQAPGKGLEFVSGIAWSTGDTYYADSVKGRFTISRDNSKNTLYLQMNSLRAEDTAVYYCAADTVVHYMGRHDIRDAEEYDYWGQGTLVTVSS
notes: Humanized VHH fused to human IgG1 Fc
**Q.** Does B1 bind [1]?
**A.** Result: binds

B2: 1B7 VHH-Fc bivalent antibody (antibody, human IgG1, V domains shown)
VH: B1 VH with Y30E, T54S, A112R
notes: as for B1
**Q.** Does B2 bind [1]?
**A.** Result: binds

B3: 1C8 VHH-Fc bivalent antibody (antibody, human IgG1, V domains shown)
VH: B1 VH with Y30L, S53E, T54G, A112Y
notes: as for B1
**Q.** Does B3 bind [1]?
**A.** Result: binds

B4: 1E6 VHH-Fc bivalent antibody (antibody, human IgG1, V domains shown)
VH: B1 VH with Y30L, R106Q, A112R, E113V
notes: as for B1
**Q.** Does B4 bind [1]?
**A.** Result: binds

B5: 1F4B VHH-Fc bivalent antibody (antibody, human IgG1, V domains shown)
VH: B1 VH with Y30T, G49A, T54Q, A112E
notes: as for B1
**Q.** Does B5 bind [1]?
**A.** Result: binds

B6: 1G9B VHH-Fc bivalent antibody (antibody, human IgG1, V domains shown)
VH: B1 VH with S32H, T54G, T57S, V100L, R110S, A112R
notes: as for B1
**Q.** Does B6 bind [1]?
**A.** Result: binds

B7: 2D3B VHH-Fc bivalent antibody (antibody, human IgG1, V domains shown)
VH: B1 VH with Y30S, G105V, A112R, E114S
notes: as for B1
**Q.** Does B7 bind [1]?
**A.** Result: binds

B8: 2D9 VHH-Fc bivalent antibody (antibody, human IgG1, V domains shown)
VH: B1 VH with S32N, A112R, E114V
notes: as for B1
**Q.** Does B8 bind [1]?
**A.** Result: binds

B9: 3B8 VHH-Fc bivalent antibody (antibody, human IgG1, V domains shown)
VH: B1 VH with Y30Q, T54S, V100R, A112R
notes: as for B1
**Q.** Does B9 bind [1]?
**A.** Result: binds

B10: 4A6B VHH-Fc bivalent antibody (antibody, human IgG1, V domains shown)
VH: B1 VH with S32L, T54D, A112R, E113S
notes: as for B1
**Q.** Does B10 bind [1]?
**A.** Result: binds

B11: 4D10 VHH-Fc bivalent antibody (antibody, human IgG1, V domains shown)
VH: B1 VH with S32F, A112R
notes: as for B1
**Q.** Does B11 bind [1]?
**A.** Result: binds

B12: 4E8 VHH-Fc bivalent antibody (antibody, human IgG1, V domains shown)
VH: B1 VH with I33F, T54S, H102G, A112L
notes: as for B1
**Q.** Does B12 bind [1]?
**A.** Result: binds

B13: 4F5 VHH-Fc bivalent antibody (antibody, human IgG1, V domains shown)
VH: B1 VH with Y30L, A51V, T54G, V100K, H107F, A112L
notes: as for B1
**Q.** Does B13 bind [1]?
**A.** Result: binds

B14: 1B3 tetravalent anti-OX40 antibody (1B3 VHH with GS linker on CH1 and on CL of human IgG1) (antibody, V domains shown)
V domain 1: B1 VH with Y30M, V100Q, A112R
V domain 2: B1 VH with Y30M, V100Q, A112R
notes: Four-chain format; The heavy and light variable regions of human IgG1 are replaced by the VHH
**Q.** What does the source list for B14?
**A.** Kd [2]: 6.57 nM; koff [2]: 0.000646 s⁻¹; EC50 [3]: 2.01 nM; EC50 [4]: 0.16 nM; EC50 [5]: 1.93 nM; EC50 [6]: 0.15 nM

B15: 2B7 tetravalent anti-OX40 antibody (2B7 VHH with GS linker on CH1 and on CL of human IgG1) (antibody, V domains shown)
V domain 1: B1 VH with Y30A, V100S, A112Y
V domain 2: B1 VH with Y30A, V100S, A112Y
**Q.** With B15 as the binder, how does the Kd [2] read?
**A.** The Kd was 6.94 nM.

**Q.** And the koff [2]?
**A.** The koff was 0.000763 s⁻¹.

**Q.** What about the EC50 [3] of the same binder?
**A.** The EC50 was 1.96 nM.

**Q.** And the EC50 [4]?
**A.** Its EC50 is 0.2 nM.

**Q.** What about the EC50 [5] of the same binder?
**A.** The EC50 was 1.98 nM.

**Q.** And the EC50 [6]?
**A.** The EC50 was 0.14 nM.

**Q.** And the EC50 [7]?
**A.** The EC50 was 0.39 nM.

B16: 1B3 VHH-Fc bivalent antibody (antibody, human IgG1, V domains shown)
VH: B1 VH with Y30M, V100Q, A112R
notes: also called 1B3-bivalent
**Q.** Which Kd [2] does the source give for B16 here?
**A.** The Kd was 3.83 nM.

**Q.** What about the koff [2] of the same binder?
**A.** The koff was 0.000391 s⁻¹.

**Q.** What about the EC50 [3] of the same binder?
**A.** Its EC50 is 2.69 nM.

**Q.** What about the EC50 [4] of the same binder?
**A.** Its EC50 is 4.25 nM.

B17: 2B7 VHH-Fc bivalent antibody (antibody, human IgG1, V domains shown)
VH: B1 VH with Y30A, V100S, A112Y
notes: also called 2B7-bivalent
**Q.** Which Kd [2] does the source give for B17 here?
**A.** The Kd was 3.68 nM.

**Q.** And the koff [2]?
**A.** The koff was 0.000398 s⁻¹.

**Q.** And the EC50 [3]?
**A.** The EC50 was 3.11 nM.

**Q.** What about the EC50 [4] of the same binder?
**A.** Its EC50 is 9.79 nM.

B18: c5E10 chimeric bivalent antibody (llama VHH clone 5E10 fused to human IgG1 Fc) (antibody, V domains shown)
VH: QVKLEESGGGSVQSGGSLRLACSASGPLGYPSIAWFRQVTGKDQEFVAGIAWSGGDTYYADSVKGRFAISRDTDRNTVELQMNNLKPEDTAVYYCAADTVVHYMGRHDIRDREEYDHWGQGTQVTVSS
notes: Bivalent VHH-Fc, human IgG1 Fc; also called c5E10-Fc; c5E10-bi
**Q.** Does B18 bind (Fc-fused mouse OX40 ECD)?
**A.** Result: no binding

**Q.** Does B18 bind [8]?
**A.** Result: no binding

B19: Ipilimumab (anti-CTLA4 antibody) (antibody, V domains shown)
VH: QVQLVESGGGVVQPGRSLRLSCAASGFTFSSYTMHWVRQAPGKGLEWVTFISYDGNNKYYADSVKGRFTISRDNSKNTLYLQMNSLRAEDTAIYYCARTGWLGPFDYWGQGTLVTVSS
VL: not shown
**Q.** Does B19 bind [9]?
**A.** Result: no binding

B20: 5E10 llama VHH (VHH)
VHH: B18 VH with Q120P
notes: VHH secreted into the culture supernatant from phagemid pADL-23c; also called c5E10 VHH
**Q.** Does B20 bind [10]?
**A.** Result: binds
